The results in this text go back to CN115433280A (SUZHOU DIMA BIOTECHNOLOGY CO LTD, dated 2022).

The target of one test is T1, CD22 on Raji细胞 (UniProt P20273 20-847, limits assumed).
T1 construct: whole, on cells; also called 天然细胞表面CD22蛋白
T1 sequence (looked up): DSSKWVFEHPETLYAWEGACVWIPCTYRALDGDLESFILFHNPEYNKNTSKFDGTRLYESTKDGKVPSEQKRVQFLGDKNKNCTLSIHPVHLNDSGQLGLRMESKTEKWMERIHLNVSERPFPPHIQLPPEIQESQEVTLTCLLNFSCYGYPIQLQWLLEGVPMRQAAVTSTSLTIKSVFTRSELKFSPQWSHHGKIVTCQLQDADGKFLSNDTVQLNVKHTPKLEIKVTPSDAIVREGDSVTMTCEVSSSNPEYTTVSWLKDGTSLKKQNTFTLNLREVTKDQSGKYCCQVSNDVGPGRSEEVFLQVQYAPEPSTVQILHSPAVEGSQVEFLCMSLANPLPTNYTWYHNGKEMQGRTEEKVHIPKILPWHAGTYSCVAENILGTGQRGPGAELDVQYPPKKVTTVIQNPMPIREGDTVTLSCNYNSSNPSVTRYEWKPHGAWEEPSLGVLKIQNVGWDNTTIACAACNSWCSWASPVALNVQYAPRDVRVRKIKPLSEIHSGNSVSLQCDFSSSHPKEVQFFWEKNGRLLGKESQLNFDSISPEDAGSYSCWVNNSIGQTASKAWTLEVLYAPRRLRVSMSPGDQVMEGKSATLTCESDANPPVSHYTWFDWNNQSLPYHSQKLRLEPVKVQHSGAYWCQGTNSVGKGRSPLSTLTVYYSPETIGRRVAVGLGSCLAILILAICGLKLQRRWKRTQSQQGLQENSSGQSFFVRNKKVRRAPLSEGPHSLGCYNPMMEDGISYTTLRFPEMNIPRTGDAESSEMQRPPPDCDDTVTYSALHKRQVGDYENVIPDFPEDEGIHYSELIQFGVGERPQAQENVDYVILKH
Put plainly: flow cytometry on Raji cells, antibody at several concentrations.

Test [1] has as its target CD22 FC融合标签蛋白 (UniProt P20273). As to the kind of experiment: indirect ELISA, B cell clone supernatant on coated CD22 protein (1 μg/ml). On the technique in general: ELISA stands for enzyme-linked immunosorbent assay.
Test [2] addresses CD22 FC融合标签蛋白 (UniProt P20273). As to the kind of experiment: ELISA, purified antibody at dilution 25K on coated CD22 protein (1 μg/ml).
Test [3] deals with CD22 FC融合标签蛋白 (UniProt P20273). Put plainly: ELISA, purified antibody at dilution 125K on coated CD22 protein (1 μg/ml).
Test [4] concerns the target CD22 FC融合标签蛋白 (UniProt P20273). Put plainly: ELISA, purified antibody at dilution 625K on coated CD22 protein (1 μg/ml).
Test [5] addresses CD22 FC融合标签蛋白 (UniProt P20273). As to the kind of experiment: ELISA, purified antibody at dilution 3125k on coated CD22 protein (1 μg/ml).
Test [6] deals with CD22 FC融合标签蛋白 (UniProt P20273). As to the kind of experiment: ELISA, purified antibody at dilution 15625k on coated CD22 protein (1 μg/ml).
Test [7] deals with CD22 FC融合标签蛋白 (UniProt P20273). As to the kind of experiment: ELISA, purified antibody at dilution 1K on coated CD22 protein (1 μg/ml).

B1: 命名为10F9的兔重组单克隆抗体 (antibody, V domains shown)
VH: QSVEESGGRLVTPGTPLTLTCTVSGFSLNTDAMIWVRQAPGKGLEYIGIIGSSGSAFFASWAKGRFTISKTSTTVDLTIISPTTEDTATYFCARFTGYGGYGRGGMDPWGPGTLVTVSS
VL: AQVLTQTPSSVSAAVGGTVTINCQSSESVHNNNWLSWYQQKPGQPPKLLIYKASTLASGVPSRFSGSGSGTQFTLTISGVQCDDAATYYCQATYNSGGWYVAFGGGTEVVVK
notes: Rabbit recombinant monoclonal antibody expressed in 293 cells
B1: the binding result with CD22 on Raji细胞 is given as “binds”. This molecule yielded an OD450 with CD22 FC融合标签蛋白 [1] of 1.86. This molecule returned an ELISA reading (OD) at dilution 25K in the test with CD22 FC融合标签蛋白 [2] of 3.37. Besides, in the test with CD22 FC融合标签蛋白 [3], the ELISA reading (OD) at dilution 125K was found to be 1.39. The ELISA reading (OD) at dilution 625K with CD22 FC融合标签蛋白 [4] is 0.405. Besides, the ELISA reading (OD) at dilution 3125k in the test with CD22 FC融合标签蛋白 [5] worked out at 0.171. Also, the ELISA reading (OD) at dilution 15625k with CD22 FC融合标签蛋白 [6] amounted to 0.125.

B2: 命名为9A3的兔重组单克隆抗体 (antibody, V domains shown)
V domain 1: QSVEESGGRLVTPGTPLTLTCTVSGIDLSSYWMNWVRQAPGKGLEWIGIIWSDDNTYYANWAKGRFTISKTSSTTVDLTITSPTTEDTATYFCARGYVGDIWGPGTLITVS
V domain 2: ALVMTQTPSSVDVAVGGTVTIRCQASQNIYSGLAWYQQKPGQPPKLLIYGASNLASGVSSRFKGSGSGTQFTLTISGVECADAATYYCQQTYTSDNVDNPFGGGTEVVVE
notes: as for B1
Turning to B2, in the test with CD22 on Raji细胞, the binding result is “binds”. Moreover, the ELISA reading (OD) at dilution 1K with CD22 FC融合标签蛋白 [7] turned out to be 3.95. Moreover, in the test with CD22 FC融合标签蛋白 [1], the OD450 was determined as 2.12. In addition, the ELISA reading (OD) at dilution 25K with CD22 FC融合标签蛋白 [2] was 3.1. This molecule also yielded an ELISA reading (OD) at dilution 125K in the test with CD22 FC融合标签蛋白 [3] of 1.33. This molecule also had an ELISA reading (OD) at dilution 625K with CD22 FC融合标签蛋白 [4] of 0.382. For the same molecule, in the test with CD22 FC融合标签蛋白 [5], the ELISA reading (OD) at dilution 3125k came to 0.18. This molecule also yielded an ELISA reading (OD) at dilution 15625k with CD22 FC融合标签蛋白 [6] of 0.12.

B3: 命名为8B5的兔重组单克隆抗体 (antibody, V domains shown)
VH: QEQLKESGGGLVTPGGSLTLTCTVSGIDLSSYAMGWVRQAPGKGLEYIGIVTYAGSAYYASWARGRFTISKTSTTVDLKITSPTTEDTATYFCARGVDNFYTLPDAFDPWGPGTLVTVS
VL: AYDMTQTPASVSAAVGGTVTINCQASQSISRFLSWYQQKPGQRPKLLIYRASTLASGVSSRFEGSGSGTQFTLTISGVECADAATYYCQQGDTYINVDNPFGGGTEVVVK
notes: as for B1
Take B3: in the test with CD22 on Raji细胞, the binding result was “binds”. The OD450 in the test with CD22 FC融合标签蛋白 [1] was found to be 1.93. Besides, the ELISA reading (OD) at dilution 25K in the test with CD22 FC融合标签蛋白 [2] amounted to 3.52. The same molecule came in with an ELISA reading (OD) at dilution 125K with CD22 FC融合标签蛋白 [3] of 1.92. For the same molecule, the ELISA reading (OD) at dilution 625K with CD22 FC融合标签蛋白 [4] came to 0.528. Further, the ELISA reading (OD) at dilution 3125k with CD22 FC融合标签蛋白 [5] was 0.203. The ELISA reading (OD) at dilution 15625k with CD22 FC融合标签蛋白 [6] amounted to 0.146.
